Assay results from patent US20220348651A1, “ENTPD2 ANTIBODIES, COMBINATION THERAPIES, AND METHODS OF USING THE ANTIBODIES AND COMBINATION THERAPIES” (Novartis AG, priority 2019, published 2022).

T1: ENTPD2 (Homo sapiens, UniProt Q9Y5L3)
T1 sequence (Q9Y5L3 1-495): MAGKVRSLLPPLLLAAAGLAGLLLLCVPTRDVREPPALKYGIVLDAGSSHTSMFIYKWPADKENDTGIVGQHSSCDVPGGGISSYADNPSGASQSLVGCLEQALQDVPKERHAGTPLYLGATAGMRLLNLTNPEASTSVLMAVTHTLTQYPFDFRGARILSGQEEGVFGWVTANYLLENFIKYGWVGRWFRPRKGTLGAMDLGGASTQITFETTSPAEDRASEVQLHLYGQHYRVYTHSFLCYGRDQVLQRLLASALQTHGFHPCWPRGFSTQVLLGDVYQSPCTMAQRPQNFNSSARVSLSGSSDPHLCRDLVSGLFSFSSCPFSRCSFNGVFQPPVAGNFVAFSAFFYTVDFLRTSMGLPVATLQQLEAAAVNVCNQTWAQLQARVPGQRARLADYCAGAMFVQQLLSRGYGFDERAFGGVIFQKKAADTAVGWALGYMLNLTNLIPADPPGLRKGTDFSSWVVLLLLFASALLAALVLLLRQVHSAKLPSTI

B1: mAb7: humanized anti-human ENTPD2 antibody from mAb17; VH SEQ ID NO: 25, VL SEQ ID NO: 78 (antibody, V domains shown)
VH: QVQLVQSGAEVVKPGASVKISCKASGYTFTDYNMDWVKQAPGQRLEWIGDINPKYDISTYNQQFKGKATITVDKSASTAYMELSSLRSEDTAVYYCARRGFFLYYGINYYYFDVWGQGTLVTVSS
VL: EIVLTQSPATLSASPGEEITLSCSASSSVSYIHWYQQKPGQAPRLLIYSTSNLASGIPARFSGSGSGTFYTLTISSVEPEDAAVYYCHQWSSYPWTFGGGTKLEIK
B2: mAb13: anti-mouse ENTPD2 antibody; HC SEQ ID NO: 193, LC SEQ ID NO: 204 (antibody)
heavy: QVQLVQSGAELKQPGQSVKISCKASGYTFTHYGMNWVKQAPGQGLKWMGWINTDTGNPTYADDFKGRFVFSLDTSVSTAYLQISNLKNEDTATYYCVRYGTLYSGYGFFFDSWGQGTLVTVSSAKTTAPSVYPLAPVCGDTTGSSVTLGCLVKGYFPEPVTLTWNSGSLSSGVHTFPAVLQSDLYTLSSSVTVTSSTWPSQSITCNVAHPASSTKVDKKIEPRGPTIKPCPPCKCPAPNLLGGPSVFIFPPKIKDVLMISLSPIVTCVVVDVSEDDPDVQISWFVNNVEVHTAQTQTHREDYNSTLRVVSALPIQHQDWMSGKEFKCKVNNKDLPAPIERTISKPKGSVRAPQVYVLPPPEEEMTKKQVTLTCMVTDFMPEDIYVEWTNNGKTELNYKNTEPVLDSDGSYFMYSKLRVEKKNWVERNSYSCSVVHEGLHNHHTTKSFSRTPGK
light: DIMMTQSPSSLSVSAGEKATITCKSSQSLFNSNTNKNYLNWYLQKPGQSPKLLFYYASTRHTGVPDRFIGSGSGTDFTLTITSVQDEDLADYYCQQWYSYPWTFGPGTKLEIKRADAAPTVSIFPPSSEQLTSGGASVVCFLNNFYPKDINVKWKIDGSERQNGVLNSWTDQDSKDSTYSMSSTLTLTKDEYERHNSYTCEATHKTSTSPIVKSFNRNEC

How the values were obtained:
[1] = molecular target: cynomologus (cyno) ENTPD2; experiment: Biacore (SPR) affinity to cyno ENTPD2 ECD; assay type: binding, cynomolgus monkey; details: 25° C.
Description: Biacore Screening: Affinity was measured by determining the kinetic rate constants using surface plasmon resonance (SPR) on a Biacore T200 or T100 with the T200 sensitivity upgrade instrument (Biacore, GE Healthcare). Antibodies were captured on CM5 sensor chips (Biacore, GE Healthcare) prepared with a mouse anti-human IgG Fc antibody (ThermoFisher catalogue #05-4200) amine coupled to the surface. […] ENTPD2 analytes were allowed to associate for 180 s and dissociate for up to 1800 s depending on the off-rate of the antibody at a flow rate of 30 μL/min. The running buffer was PBS pH 7.2 (prepared from a Corning 10X stock, cat#46-013-CM)+0.05% Tween 20. Regeneration was accomplished with 30 s injections of 3 or 4 M MgCl2 to remove all the captured antibody and remaining complex from the surface, after which fresh antibody was captured. The raw data were analyzed using Biacore T200 Evaluation Software version 1.0 and fit to a 1:1 binding model, with all parameters set to fit globally except for RI, which was set to fit locally.

ENTPD2 = molecular target: T1, ENTPD2; experiment: FACS binding to human ENTPD2 expressing cells (apparent FACS affinity); design: expressed in transfected cells; host or cells: NIH/3T3 (retroviral transduction)
Description: […] Cells were rinsed thoroughly with 1×PBS and treated with Accutase (Millipore #SCR005) to lift from growth plates and resuspended at approximately 1×10^5 cells/90 μL in 1× FACS buffer (2% FBS+0.1% NaN3 in PBS). In a 96-well U-bottom plate, 10 μL of 10× antibody solution in FACS buffer was pre-seeded and 90 μL of cell suspension was added. Cell were incubated for 30 minutes at 4° C., washed 1× with cold PBS and resuspended in 100 μL of 1:500 secondary antibody 1× FACS buffer (Allophycocyanin conjugated F(ab′)2 goat anti-human IgG, Fcγ specific; Jackson Immunoresearch, Cat#109-136-098). After additional incubation for 15 min at 4° C., cells were washed twice with PBS and resuspended in 100 μL of 1×FACS buffer with 4 μg/mL propidium iodide (Life Technologies, Cat#P3566). Geometric mean fluorescence intensity was calculated on live single cells using FlowJo software.

cyno ENTPD2 = experiment: FACS binding to cyno ENTPD2 expressing cells (apparent FACS affinity); design: species or system cynomolgus monkey
Description: FACS screening: Specific binding of candidate antibodies to endogenously expressed ENTPD2 was assessed by flow cytometry. Cells were rinsed thoroughly with 1×PBS and treated with Accutase (Millipore #SCR005) to lift from growth plates and resuspended at approximately 1×10^5 cells/90 μL in 1× FACS buffer (2% FBS+0.1% NaN3 in PBS). In a 96-well U-bottom plate, 10 μL of 10× antibody solution in FACS buffer was pre-seeded and 90 μL of cell suspension was added. Cell were incubated for 30 minutes at 4° C., washed 1× with cold PBS and resuspended in 100 μL of 1:500 secondary antibody 1× FACS buffer (Allophycocyanin conjugated F(ab′)2 goat anti-human IgG, Fcγ specific; Jackson Immunoresearch, Cat#109-136-098). After additional incubation for 15 min at 4° C., cells were washed twice with PBS and resuspended in 100 μL of 1×FACS buffer with 4 μg/mL propidium iodide (Life Technologies, Cat#P3566). Geometric mean fluorescence intensity was calculated on live single cells using FlowJo software.

cynomologus (cyno) ENTPD2, sequence (as listed by the source): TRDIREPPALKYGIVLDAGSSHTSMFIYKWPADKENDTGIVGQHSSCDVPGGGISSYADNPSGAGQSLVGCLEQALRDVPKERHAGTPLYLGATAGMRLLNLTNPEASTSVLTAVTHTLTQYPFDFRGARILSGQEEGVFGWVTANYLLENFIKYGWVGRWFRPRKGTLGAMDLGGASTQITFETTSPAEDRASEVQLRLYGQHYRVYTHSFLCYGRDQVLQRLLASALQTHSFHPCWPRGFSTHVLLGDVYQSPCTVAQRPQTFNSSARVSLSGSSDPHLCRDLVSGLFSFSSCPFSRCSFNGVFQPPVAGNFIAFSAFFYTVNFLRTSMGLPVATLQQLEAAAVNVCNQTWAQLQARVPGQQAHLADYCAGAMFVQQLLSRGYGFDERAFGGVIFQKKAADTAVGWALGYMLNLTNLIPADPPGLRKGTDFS
cyno ENTPD2, sequence (as listed by the source): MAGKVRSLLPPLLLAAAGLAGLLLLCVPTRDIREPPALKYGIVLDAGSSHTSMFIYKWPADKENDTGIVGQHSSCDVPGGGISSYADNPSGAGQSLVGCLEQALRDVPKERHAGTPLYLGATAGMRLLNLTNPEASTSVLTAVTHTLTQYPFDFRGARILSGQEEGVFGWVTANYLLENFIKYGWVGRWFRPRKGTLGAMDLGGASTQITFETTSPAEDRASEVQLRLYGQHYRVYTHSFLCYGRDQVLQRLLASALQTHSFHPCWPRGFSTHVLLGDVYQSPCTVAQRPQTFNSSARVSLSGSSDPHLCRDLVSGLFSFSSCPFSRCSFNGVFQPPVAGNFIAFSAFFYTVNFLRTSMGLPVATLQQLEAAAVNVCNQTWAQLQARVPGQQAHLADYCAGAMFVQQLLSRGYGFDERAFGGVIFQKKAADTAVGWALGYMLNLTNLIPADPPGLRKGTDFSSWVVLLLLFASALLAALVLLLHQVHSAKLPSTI

Molecule | Kd [1] [nM] | ka [1] [M⁻¹ s⁻¹] | kd [1] [s⁻¹] | EC50 (ENTPD2; NIH3T3 humanENTPD2 cells) [nM] | EC50 (cyno ENTPD2; NIH3T3 cynoENTPD2 cells) [nM] | binding to human ENTPD2 (ENTPD2) | binding to cyno ENTPD2 (cyno ENTPD2)
B1 | 1.1 | 1.2e+06 | 0.0012 | 0.5 | 0.8 |  | 
B2 |  |  |  |  |  | no binding | no binding
